Experimental data: the supplement of paper PMC9170038

Test system: MS2 coat protein
Assay: apparent KD of MS2 coat protein; designed switch direction (-1 OFF switch, 1 ON switch): -1; higher = weaker reporter binding
How it was run: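 For each design, the apparent KD is the median over clusters of curves fitted to normalised cluster fluorescence. Clusters held RNA switches with common flanks, transcribed on Illumina chips by stalled E. coli RNA polymerase. These were titrated with SNAP-549-labelled MS2 coat protein, doubling from 0.7 or 1.5 nM to 3 µM, without input, with 200 uM small-molecule ligand, or with an oligonucleotide input.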

[1] = Eterna round: R95, input ligand: FMN 200 uM
[2] = Eterna round: R95, input ligand: microRNA oligo, concentration not stated
[3] = Eterna round: R95, input ligand: none
[4] = input ligand: microRNA oligo, concentration not stated

| Sequence | apparent KD of MS2 coat protein [1] [nM] | apparent KD of MS2 coat protein [2] [nM] | apparent KD of MS2 coat protein [3] [nM] | apparent KD of MS2 coat protein (input ligand: FMN 200 uM) [nM] | apparent KD of MS2 coat protein (input ligand: none) [nM] | apparent KD of MS2 coat protein [4] [nM] |
| --- | --- | --- | --- | --- | --- | --- |
| CGGAGCAGAGGGAGAUCCAACAUGAGGAUCACCCAUGUCUCAUAAGCUUUUUGCUCAUCUUAUUGUACCUUGGUGCU [JL ViennaUCT Edcesobi mod 5] (puzzle: Sensor v3, turn-off variant 1) | 37.3 | 15.4 | 46.4 | – | – | – |
| CGGCAAUCCUAGGAUAUGCUAGACGAAAGUCUAGCAGAAGGAGGAACAUGAGGAUCACCCAUGUGUCCUAGCCG [Eli x6 4.02] (Eterna round: R97, puzzle: Exclusion 6) | – | – | – | 23.5 | 20.2 | – |
| CGGGACCGAGGAUAUACAUGUGGACUCGAGUUGACGUUGGGACAUGAGGAUCACCCAUGUAGAAGGCGGAUCUU [Eternabot (L2) Solution 57] (Eterna round: R97, puzzle: Exclusion 2) | – | – | – | 270 | 741 | – |
| CGGGACGUCCUGAUAAUAAGACAUGAGGAUCACCCAUGUCGGCAGGAUAUCAGUCCUUACGGUUAUGAGAAGGGUCGGCAACCA [Quatis] (Eterna round: R96, puzzle: Exclusion NG 3) | – | – | – | 10.9 | 11.6 | 9.05 |
| CGGGAGGGACAAGCUUUUUGCACGUCUGUUAUUGAUGCAACAUGAGGAUCACCCAUGUUUAGGGUGUGAGAGGAUGG [JR_SV3TOV2_Sub051] (puzzle: Sensor v3, turn-off variant 2) | 373 | 471 | 553 | – | – | – |
| CGGGUCUGAGGAUAUCCACCCUCAUACAUGAGGAUCACCCAUGUUCACCCUUGGGUUCCCGGAGAAGGCAGUUUUC [Megrez-3.6] (Eterna round: R97, puzzle: Exclusion 5) | – | – | – | 275 | 208 | – |
| CGGGUGAACAGAGGAUAUCGUACAUGAGGAUCACCCAUGUAAUAAAUGAGAAUUUCGAAUGUAAUCGAGAAGGCUGGAAAACCC [Ostracism 93 - Jieux - Exclusion NG 2] (Eterna round: R96, puzzle: Exclusion NG 2) | – | – | – | 228 | 128 | 115 |
| CGGUGCUGAGGAUAUACAUGAGGAUCACCCAUGUGUGCCAGCUAGAAGACUGGCACUUGUAGAAGGCAGUACUG [Mat - Exclusion 3 - Mod of JL D90] (puzzle: Exclusion 3) | – | 10.3 | – | – | – | – |
| CGUACUGAAGUGAGGAUAUUGUCUCGGAUACGAAACAAGAAGGCACAUGAGGAUCACCCAUGUAAACAGUACGA [Malc #30 mod 10] (puzzle: Brourd's mod of Exclusion 4) | – | 15.6 | – | – | – | – |
| CGUGGACUAGGAUAUUUACGAGGCUACAUGAGGAUCACCCAUGUGUUCUCGAGUACCAUGAAAGAAGGAGUAGCGA [Betiatte] (puzzle: Exclusion 5) | – | 12 | – | – | – | – |
| CGUUUGCAUUUUGCUCGUCACAUGAGGAUCACCCAUGUUAUGCUACAGUACGCUAGGAUCGGCGUCUGAGGGCUUUA [Eternabot (Original) Solution 1] (Eterna round: R97, puzzle: Sensor, turn-off variant 1) | – | – | – | 25.2 | 27.7 | – |
| CUAAUACAUCAGGAUAUCUAUGAUUAUAGCCAUAGAGAAGGGAUGACAUGAGGAUCACCCAUGUCAAAGGGUGA [eternacac ex6r4 sub21] (Eterna round: R97, puzzle: Exclusion 6) | – | – | – | 426 | 879 | – |
| CUAGCGAUUGUAGGAUAUCGGACUGUUUCAGUCUGAGAAGGACAUGAGGAUCACCCAUGUGAAGCUACGUGAGUAGCACGCUAG [JL ENG1 3.84] (Eterna round: R96, puzzle: Exclusion NG 1) | – | – | – | 46.1 | 24.5 | 15.4 |
| CUAGGUCGAGGAUAUACAUGAGGAUCACCCAUGUCGGUUCCAUGAGAGCUAGACACUAGUAGAAGGCGGUAGGC [Eternabot (L2) Solution 60] (Eterna round: R97, puzzle: Exclusion 3) | – | – | – | 26.1 | 27.8 | – |
| CUAGUCCGAGGAUAUAUAUUGUGAUACAUGAGGAUCACCCAUGUAAUAAUAUGGAAAUAAAUAGAAGGCGGACUAG [Mat - Exclusion 5 - JL mod - D53] (puzzle: Exclusion 5) | 56.4 | 36.8 | 27 | – | – | – |
| CUAGUCCGAGGAUAUAUUAAGUGAUACAUGAGGAUCACCCAUGUUAUUUAAUGGAUGUUAAUAGAAGGCGGACUAG [Mat - Exclusion 5 - JL mod - D76] (puzzle: Exclusion 5) | 55 | 37.7 | 77.8 | – | – | – |
| CUAUCUUGCAAGGAUAUGCAAUUUAUUAUUUAUGCAGAAGGUGCUACAUGAGGAUCACCCAUGUUUCUGGGUUU [JR_E6_Sub046] (Eterna round: R96, puzzle: Exclusion 6) | – | – | – | 314 | 120 | 116 |

| Sequence | apparent KD of MS2 coat protein [1] [nM] | apparent KD of MS2 coat protein [2] [nM] | apparent KD of MS2 coat protein [3] [nM] | apparent KD of MS2 coat protein (input ligand: FMN 200 uM) [nM] | apparent KD of MS2 coat protein (input ligand: none) [nM] | apparent KD of MS2 coat protein [4] [nM] |
| --- | --- | --- | --- | --- | --- | --- |
| CUAUCUUGCAAGGAUAUGCAAUUUAUUAUUUAUGCAGAAGGUGCUACAUGAGGAUCACCCAUGUUUCUGGGUUU [JR_E6_Sub046] (puzzle: Exclusion 6) | – | 117 | – | – | – | – |
| CUAUUGUGAGGAUAUCAGGUGUGCUAGCGUACUGGUACAUCUGAGAAGGCACAUGAGGAUCACCCAUGUUUCUU [JL-ex4-3.20 Brourd mod] (puzzle: Exclusion 4) | – | 18.4 | – | – | – | – |
| CUCAGGUGAGGAUAUGCUUAAGGAUCGGUACACCGACACCUGUAGAAGGCACAUGAGGAUCACCCAUGUUAGGC [Eternabot (L1) Solution 68] (Eterna round: R97, puzzle: Exclusion 4) | – | – | – | 30.1 | 27.9 | – |
| CUCAUUUGUCAGGAUAUCGUGUGGCUAAUUGUACGAGAAGGGACGACAUGAGGAUCACCCAUGUGGUCUUUGAG [JR_Ex6_Sub083] (Eterna round: R97, puzzle: Exclusion 6) | – | – | – | 196 | 54.8 | – |
| CUCCAUGCCCAGGCUUAGAACAUGAGGAUCACCCAUGUAGAUCCAGAAAAUUUGCUCGUCAGGCAAUUUAUAGAUUG [Eternabot (L1) Solution 9] (Eterna round: R97, puzzle: Sensor, turn-off variant 1) | – | – | – | 500 | 687 | – |
| CUCCCACAUGAGGAUCACCCAUGUGAGGAUAUGGAGCGCGACCGCGCGGUCGCGUACACCAGAAGGCGCAUGAU [1st #81] (Eterna round: R97, puzzle: Exclusion 1) | – | – | – | 24.1 | 21.1 | – |
| CUCCGCCGCAGAGGAUAUGGAUGUCGGAGACAUGAGGAUCACCCAUGUAUCCUGUCGAUGAGUACCCAGAAGGUUGUCACGCAU [Eternabot solution 49] (Eterna round: R96, puzzle: Exclusion NG 2) | – | – | – | 26.4 | 26.1 | 26 |
| CUCCGGCGUGUAGGAUAUGGUUCCGUUUAGGAUCCAGAAGGACAUGAGGAUCACCCAUGUACAUGUCGUCGGUCGUCACCGGGC [salish99_ExNG1_r04_212] (Eterna round: R96, puzzle: Exclusion NG 1) | – | – | – | 110 | 28.5 | 24.5 |
| CUCCGGCGUGUAGGAUAUGGUUCCGUUUCGGUUCCAGAAGGACAUGAGGAUCACCCAUGUACAUGUCGUCGGUCGUCACCGGGC [salish99_ExNG1_r04_215] (Eterna round: R96, puzzle: Exclusion NG 1) | – | – | – | 120 | 35.4 | 21.7 |
| CUCCUCAUGGCGCCUAAACACAUGAGGAUCACCCAUGUACAGGCUCUUUGCCGUCUUAUAAUAAAACCGAGGAUGCG [Ageusan] (puzzle: Sensor v3, turn-off variant 1) | 40.2 | 219 | 36.4 | – | – | – |
| CUCGUGCAGCAAAGCUGUACGAGUACAUGAGGAUCACCCAUGUAGGAUAUGGUACGCAAAGCGUGCUAGAAGGAUAUGUGAAGG [Mat - Exclusion NG 3 - Mod of JL - D88] (Eterna round: R96, puzzle: Exclusion NG 3) | – | – | – | 49.4 | 51.5 | 36.2 |
| CUCUACGGAGGAUAUACAACCGGUUAUCCCUGUGGAACGCCACAUGAGGAUCACCCAUGUAGAAGGCCGAGAAA [Ceones] (puzzle: Exclusion 2) | 15.2 | 211 | 218 | – | – | – |
| CUCUUGUAAGGAUAUCUGACAAGUGACGAAAGUCACAGUUCAGAGAAGGUACAUGAGGAUCACCCAUGUAGAAC [Exclusion 4 - Mod Brourd Ex 4-3: 41] (puzzle: Exclusion 4) | – | 60.6 | – | – | – | – |
| CUGAACCCGGUAGGAUAUAUUGUGGGCAGGCGUGGAACGACAUGAGGAUCACCCAUGUAAUUGAGGUAGAAGGGCCGAGAGAUU [Excl-NG2-LRO14] (Eterna round: R96, puzzle: Exclusion NG 2) | – | – | – | 32.8 | 37.1 | 25.9 |
| CUGAAUCGAGGAUAUUGUACUGCUGACAUGAGGAUCACCCAUGUAUGUUAACUCAGCCGUCGAGAAGGCGAACAUA [BotMod 33 - Jieux - Exclusion 5] (Eterna round: R97, puzzle: Exclusion 5) | – | – | – | 12.8 | 19 | – |
| CUGAGCAGACGGAGAUCCAACAUGAGGAUCACCCAUGUCUCAAAAGCUUUUUGCUCGUCUUAUCCUCCUCUGCUCUC [Orgeain] (puzzle: Sensor v3, turn-off variant 1) | 14.8 | 31.6 | 14.1 | – | – | – |
